Test results as given in patent US12338277.

Experiments:
Experiment in all cases: cell-based or functional assay
[1] = target: Murine leukemia virus (MuLV) envelope on pseudovirus (Murine leukemia virus)
[2] = target: HIV-1 envelope of pseudovirus ZM135M.PL10a (HIV-1)
[3] = target: HIV-1 envelope of pseudovirus BJOX015000.11.5 (HIV-1)
[4] = target: HIV-1 envelope of pseudovirus 7030102001E5(Rev-) (HIV-1)
[5] = target: HIV-1 envelope of pseudovirus 620345.c01 (HIV-1)
[6] = target: HIV-1 Env of pseudovirus X2131_C1_85 (HIV-1)
[7] = target: HIV-1 Env of pseudovirus 231966.c02 (HIV-1)
[8] = target: HIV-1 Env of pseudovirus BJOX010000.06.2 (HIV-1)
[9] = target: HIV-1 envelope of pseudovirus 62357_14_03_4589 (HIV-1)
[10] = target: HIV-1 envelope of pseudovirus 6545.v4.c1 (HIV-1)
[11] = target: HIV-1 envelope of pseudovirus BJOX025000.01.1 (HIV-1)
[12] = target: HIV-1 envelope of pseudovirus HIV-001428-2.42 (HIV-1)
[13] = target: HIV-1 envelope of pseudovirus 211-9 (HIV-1)
[14] = target: HIV-1 Env of pseudovirus REJO4541.67 (HIV-1)
[15] = target: HIV-1 Env of pseudovirus R2184.c04 (HIV-1)
[16] = target: HIV-1 Env of pseudovirus Ce1172_H1 (HIV-1)
[17] = target: HIV-1 envelope of pseudovirus C2101.c01 (HIV-1)
[18] = target: HIV-1 envelope of pseudovirus ZM214M.PL15 (HIV-1)
[19] = target: HIV-1 Env of pseudovirus SC422661.8 (HIV-1)
[20] = target: HIV-1 envelope of pseudovirus T251-18 (HIV-1)
[21] = target: HIV-1 Env of pseudovirus 6240_08_TA5_4622 (HIV-1)
[22] = target: HIV-1 Env of pseudovirus ZM247v1(Rev-) (HIV-1)
[23] = target: HIV-1 Env of pseudovirus Du172.17 (HIV-1)
[24] = target: HIV-1 Env of pseudovirus THRO4156.18 (HIV-1)
[25] = target: HIV-1 Env of pseudovirus 928-28 (HIV-1)
[26] = target: HIV-1 envelope of pseudovirus TRJO4551.58 (HIV-1)
[27] = target: HIV-1 Env of pseudovirus WITO4160.33 (HIV-1)
[28] = target: HIV-1 Env of pseudovirus BF1266.431a (HIV-1)
[29] = target: HIV-1 Env of pseudovirus Q451.e2 (HIV-1)
[30] = target: HIV-1 Env of pseudovirus Ce1176_A3 (HIV-1)
[31] = target: HIV-1 envelope of pseudovirus 191084 B7-19 (HIV-1)
[32] = target: HIV-1 Env of pseudovirus 3415.v1.c1 (HIV-1)
[33] = target: HIV-1 envelope spike of pseudovirus R1166.c1 (HIV-1)
[34] = target: HIV-1 Env of pseudovirus 6952.v1.c20 (HIV-1)
[35] = target: HIV-1 Env of pseudovirus Du156.12 (HIV-1)
[36] = target: HIV-1 envelope of pseudovirus 3817.v2.c59 (HIV-1)
[37] = target: HIV-1 envelope of pseudovirus Ce1086_B2 (HIV-1)
[38] = target: HIV-1 Env of pseudovirus T255-34 (HIV-1)
[39] = target: HIV-1 Env of pseudovirus ZM135M.PL10a (HIV-1)
[40] = target: HIV-1 envelope of pseudovirus Ce2010_F5 (HIV-1)
[41] = target: HIV-1 envelope of pseudovirus BJOX009000.02.4 (HIV-1)
[42] = target: HIV-1 envelope of pseudovirus 1394C9G1(Rev-) (HIV-1)
[43] = target: HIV-1 envelope of pseudovirus Ce0682_E4 (HIV-1)
[44] = target: HIV-1 envelope of pseudovirus R1166.c01 (HIV-1)
[45] = target: HIV-1 envelope of pseudovirus REJO4541.67 (HIV-1)
[46] = target: HIV-1 Env of pseudovirus X1193_c1 (HIV-1)
[47] = target: HIV-1 envelope of pseudovirus 6480.v4.c25 (HIV-1)
[48] = target: HIV-1 Env of pseudovirus C1080.c03 (HIV-1)
[49] = target: HIV-1 Env of pseudovirus 1054_07_TC4_1499 (HIV-1)

10-1074 (antibody), sequence (VH): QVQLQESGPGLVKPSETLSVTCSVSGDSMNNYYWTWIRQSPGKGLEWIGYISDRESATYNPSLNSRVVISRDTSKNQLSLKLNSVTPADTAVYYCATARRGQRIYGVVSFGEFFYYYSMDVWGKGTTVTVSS
10-1074 (antibody), sequence (V domain): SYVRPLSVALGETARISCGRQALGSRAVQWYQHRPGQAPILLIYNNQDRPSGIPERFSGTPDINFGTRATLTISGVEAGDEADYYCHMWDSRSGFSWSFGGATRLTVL

Substance: 10-1074 (antibody)
- IC50 (TZM-bl neutralization assay) [1]: > 40 µg/mL
- IC80 (TZM-bl neutralization assay) [1]: > 40 µg/mL
- IC50 (TZM-bl neutralization) [2]: 0.069 µg/mL
- IC50 (TZM-bl neutralization) [3]: > 50 µg/mL
- IC50 (TZM-bl neutralization) [4]: 0.006 µg/mL
- IC50 (TZM-bl neutralization) [5]: > 50 µg/mL
- IC80 (TZM-bl neutralization) [6]: 0.064 µg/mL
- IC80 (TZM-bl neutralization) [7]: > 50 µg/mL
- IC80 (TZM-bl neutralization) [8]: > 50 µg/mL
- IC50 (TZM-bl neutralization) [9]: > 50 µg/mL
- IC50 (TZM-bl neutralization) [10]: > 50 µg/mL
- IC50 (TZM-bl neutralization) [11]: > 50 µg/mL
- IC50 (TZM-bl neutralization) [12]: 0.044 µg/mL
- IC50 (TZM-bl neutralization) [13]: 0.112 µg/mL
- IC80 (TZM-bl neutralization) [14]: > 50 µg/mL
- IC80 (TZM-bl neutralization) [15]: > 50 µg/mL
- IC80 (TZM-bl neutralization) [16]: 0.166 µg/mL
- IC50 (TZM-bl neutralization) [17]: > 50 µg/mL
- IC50 (TZM-bl neutralization) [18]: 0.174 µg/mL
- IC80 (TZM-bl neutralization) [19]: 0.418 µg/mL
- IC50 (TZM-bl neutralization) [20]: 1.08 µg/mL
- IC80 (TZM-bl neutralization) [21]: 0.306 µg/mL
- IC80 (TZM-bl neutralization) [22]: 0.186 µg/mL
- IC80 (TZM-bl neutralization) [23]: 0.43 µg/mL
- IC80 (TZM-bl neutralization) [24]: > 50 µg/mL
- IC80 (TZM-bl neutralization) [25]: 4.7 µg/mL
- IC50 (TZM-bl neutralization) [26]: 0.17 µg/mL
- IC80 (TZM-bl neutralization) [27]: 2.11 µg/mL
- IC80 (TZM-bl neutralization) [28]: > 50 µg/mL
- IC80 (TZM-bl neutralization) [29]: > 50 µg/mL
- IC80 (TZM-bl neutralization) [30]: 0.07 µg/mL
- IC50 (TZM-bl neutralization) [31]: 0.032 µg/mL
- IC80 (TZM-bl neutralization) [32]: > 50 µg/mL
- IC50 (TZM-bl neutralization assay) [33]: > 40 µg/mL
- IC80 (TZM-bl neutralization assay) [33]: > 40 µg/mL
- IC80 (TZM-bl neutralization) [34]: 0.138 µg/mL
- IC80 (TZM-bl neutralization) [35]: 0.076 µg/mL
- IC50 (TZM-bl neutralization) [36]: 3.15 µg/mL
- IC50 (TZM-bl neutralization) [37]: > 50 µg/mL
- IC80 (TZM-bl neutralization) [38]: > 50 µg/mL
- IC80 (TZM-bl neutralization) [39]: 0.367 µg/mL
- IC50 (TZM-bl neutralization) [40]: > 50 µg/mL
- IC50 (TZM-bl neutralization) [41]: > 50 µg/mL
- IC50 (TZM-bl neutralization) [42]: 0.05 µg/mL
- IC50 (TZM-bl neutralization) [43]: > 50 µg/mL
- IC50 (TZM-bl neutralization) [44]: > 50 µg/mL
- IC50 (TZM-bl neutralization) [45]: > 50 µg/mL
- IC80 (TZM-bl neutralization) [46]: 0.475 µg/mL
- IC50 (TZM-bl neutralization) [47]: 0.009 µg/mL
- IC80 (TZM-bl neutralization) [48]: > 50 µg/mL
- IC80 (TZM-bl neutralization) [49]: 0.563 µg/mL

Substance: PGT121 (antibody)
- IC50 (TZM-bl neutralization assay) [1]: > 40 µg/mL
- IC80 (TZM-bl neutralization assay) [1]: > 40 µg/mL
- IC50 (TZM-bl neutralization) [2]: 0.576 µg/mL
- IC50 (TZM-bl neutralization) [3]: > 50 µg/mL
- IC50 (TZM-bl neutralization) [4]: 0.01 µg/mL
- IC50 (TZM-bl neutralization) [5]: > 50 µg/mL
- IC80 (TZM-bl neutralization) [6]: 0.058 µg/mL
- IC80 (TZM-bl neutralization) [7]: > 50 µg/mL
- IC80 (TZM-bl neutralization) [8]: > 50 µg/mL
- IC50 (TZM-bl neutralization) [9]: 1.04 µg/mL
- IC50 (TZM-bl neutralization) [10]: > 50 µg/mL
- IC50 (TZM-bl neutralization) [11]: > 50 µg/mL
- IC50 (TZM-bl neutralization) [12]: 0.028 µg/mL
- IC50 (TZM-bl neutralization) [13]: 1.46 µg/mL
- IC80 (TZM-bl neutralization) [14]: > 50 µg/mL
- IC80 (TZM-bl neutralization) [15]: > 50 µg/mL
- IC80 (TZM-bl neutralization) [16]: 0.088 µg/mL
- IC50 (TZM-bl neutralization) [17]: > 50 µg/mL
- IC50 (TZM-bl neutralization) [18]: 0.236 µg/mL
- IC80 (TZM-bl neutralization) [19]: 0.46 µg/mL
- IC50 (TZM-bl neutralization) [20]: > 50 µg/mL
- IC80 (TZM-bl neutralization) [21]: 0.584 µg/mL
- IC80 (TZM-bl neutralization) [22]: 0.126 µg/mL
- IC80 (TZM-bl neutralization) [23]: 0.89 µg/mL
- IC80 (TZM-bl neutralization) [24]: > 50 µg/mL
- IC80 (TZM-bl neutralization) [25]: > 50 µg/mL
- IC50 (TZM-bl neutralization) [26]: 3.73 µg/mL
- IC80 (TZM-bl neutralization) [27]: 6.01 µg/mL
- IC80 (TZM-bl neutralization) [28]: > 50 µg/mL
- IC80 (TZM-bl neutralization) [29]: > 50 µg/mL
- IC80 (TZM-bl neutralization) [30]: 0.058 µg/mL
- IC50 (TZM-bl neutralization) [31]: 0.042 µg/mL
- IC80 (TZM-bl neutralization) [32]: > 50 µg/mL
- IC50 (TZM-bl neutralization assay) [33]: > 40 µg/mL
- IC80 (TZM-bl neutralization assay) [33]: > 40 µg/mL
- IC80 (TZM-bl neutralization) [34]: 0.605 µg/mL
- IC80 (TZM-bl neutralization) [35]: 0.033 µg/mL
- IC50 (TZM-bl neutralization) [36]: > 50 µg/mL
- IC50 (TZM-bl neutralization) [37]: < 0.001 µg/mL
- IC80 (TZM-bl neutralization) [38]: > 50 µg/mL
- IC80 (TZM-bl neutralization) [39]: 5.88 µg/mL
- IC50 (TZM-bl neutralization) [40]: > 50 µg/mL
- IC50 (TZM-bl neutralization) [41]: 3.63 µg/mL
- IC50 (TZM-bl neutralization) [42]: 0.486 µg/mL
- IC50 (TZM-bl neutralization) [43]: > 50 µg/mL
- IC50 (TZM-bl neutralization) [44]: > 50 µg/mL
- IC50 (TZM-bl neutralization) [45]: 3.61 µg/mL
- IC80 (TZM-bl neutralization) [46]: 0.202 µg/mL
- IC50 (TZM-bl neutralization) [47]: 0.017 µg/mL
- IC80 (TZM-bl neutralization) [48]: > 50 µg/mL
- IC80 (TZM-bl neutralization) [49]: 0.696 µg/mL
